Experimental data published in paper PMC3830196, “Calmodulin-like protein AtCML3 mediates dimerization of peroxisomal processing protease AtDEG15 and contributes to normal peroxisome metabolism” (Plant Molecular Biology, 2013).

Molecular target: T1, AtDEG15 full length (yeast two-hybrid / three-hybrid fusion) (Arabidopsis thaliana, UniProt Q8VZD4 1-709)
T1 construct: AtDEG15, peroxisomal DEG protease of Arabidopsis thaliana (At1g28320); full-length coding region; Cloned both into pBridge and pGAD424; in the Y3H the full length stood in pBridge; also called AtDEG15_pBridge; AtDEG15_pGAD424; source: yeast two-hybrid fusion (S. cerevisiae AH109)
Test: two-hybrid; Matchmaker GAL4 system, fusions in pBridge (DNA-binding domain) and pGAD424 (activation domain), S. cerevisiae AH109; HIS3 reporter (growth on His-free medium) and lacZ reporter (beta-galactosidase, Miller units)
Details: partners not purified

- beta-galactosidase activity, fold over the negative controls: 20 fold
B1: AtCML3 full length (yeast two-hybrid fusion) (natural protein, Arabidopsis thaliana, UniProt Q9SRR7 1-153, looked up)
chain: MDQAELARIFQMFDRNGDGKITKQELNDSLENLGIYIPDKDLVQMIEKIDLNGDGYVDIEEFGGLYQTIMEERDEEEDMREAFNVFDQNRDGFITVEELRSVLASLGLKQGRTLEDCKRMISKVDVDGDGMVNFKEFKQMMKGGGFAALGSNL
notes: AtCML3, calmodulin-like protein of Arabidopsis thaliana (At3g07490); full-length coding region; Cloned both into pBridge and pGAD424; also called AtCML3_pGAD424; AtCML3_pBridge; source: yeast two-hybrid fusion (S. cerevisiae AH109)
